Non-standard residues stand in square brackets, D forms with d. Groups on a side chain read outwards from the residue. Primed or numbered codes have the meaning given here. No end group written: not given here. *: point of attachment. C20 diacid = O=C(O)CCCCCCCCCCCCCCCCCCC(=O)*; NMeY = CN[C@@H](Cc1ccc(O)cc1)C(=O)O; Stearoyl = CCCCCCCCCCCCCCCCCC(=O)*; αMeF = C[C@](N)(Cc1ccccc1)C(=O)O; dIva = CC[C@@](C)(N)C(=O)O; Iva = CC[C@](C)(N)C(=O)O; PEG2′ = not defined here; Aib = CC(C)(N)C(=O)O
T1: human GIPR (human), P48546
T1 chain: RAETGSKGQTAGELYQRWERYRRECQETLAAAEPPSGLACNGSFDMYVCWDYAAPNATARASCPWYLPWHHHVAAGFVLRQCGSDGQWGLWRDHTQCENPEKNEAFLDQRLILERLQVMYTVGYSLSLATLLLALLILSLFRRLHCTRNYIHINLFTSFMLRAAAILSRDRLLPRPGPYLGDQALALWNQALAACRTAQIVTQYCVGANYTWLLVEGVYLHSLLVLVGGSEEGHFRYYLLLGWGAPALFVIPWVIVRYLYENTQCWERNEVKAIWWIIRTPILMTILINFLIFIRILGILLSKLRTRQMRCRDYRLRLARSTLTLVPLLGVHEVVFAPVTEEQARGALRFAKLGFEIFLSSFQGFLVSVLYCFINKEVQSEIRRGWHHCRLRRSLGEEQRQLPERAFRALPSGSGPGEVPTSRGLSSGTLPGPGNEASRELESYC

T2: human GLP-1R (human), P43220
T2 chain: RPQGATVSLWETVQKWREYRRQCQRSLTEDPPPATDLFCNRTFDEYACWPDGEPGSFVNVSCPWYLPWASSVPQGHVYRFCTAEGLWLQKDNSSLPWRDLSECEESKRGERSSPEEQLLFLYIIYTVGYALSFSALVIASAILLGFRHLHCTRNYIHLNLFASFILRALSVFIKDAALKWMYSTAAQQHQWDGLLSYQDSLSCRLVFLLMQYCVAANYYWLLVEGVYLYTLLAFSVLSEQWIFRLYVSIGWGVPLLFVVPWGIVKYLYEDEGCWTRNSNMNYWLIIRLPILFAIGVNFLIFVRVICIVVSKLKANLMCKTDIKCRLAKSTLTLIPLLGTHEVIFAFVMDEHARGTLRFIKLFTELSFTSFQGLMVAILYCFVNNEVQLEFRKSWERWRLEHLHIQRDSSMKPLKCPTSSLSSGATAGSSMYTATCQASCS


Key:
[1] = biological target: T1, human GIPR (human), P48546
[2] = biological target: T2, human GLP-1R (human), P43220

| Binder | Agonist activity (EC50, M) [1] [M] | Agonist activity (EC50, M) [2] [M] |
| --- | --- | --- |
| Y[Aib]EGTVVSLYSK([Gly-Gly-Gly-Gly-Stearoyl])[Aib]LDRQAQ[Aib]EFVK(Ac)WLLAQR (ends and bridges not checked) [Compound 261] | 5.5e-11 | > 1e-06 |
| [NMeY][Aib]EGTFISDYSIALDRIAQQSFVNWLLAQRPSSGAPPPSR (ends and bridges not checked) [Compound 60] | 1.1e-12 | > 1e-06 |
| Y[Aib]EGTVVSLYSK([Gly-Gly-Gly-Gly-Stearoyl])[Aib]LDRQAQ[Aib]EFVRWLLAQR (ends and bridges not checked) [Compound 258] | 9.2e-11 | > 1e-06 |
| Me-Y[Aib]EGTFISDYSIALDRIAQ[Aib]S[αMeF]VNW[Iva]LAQRPSSGAPPPSR (not fully specified (residue 1, C-terminus); ends and bridges not checked) [Compound 125] | 1.8e-12 | > 1e-06 |
| Y[Aib]EGTFISDYSK([PEG2′-pentadecanoyl])ALDRIAQQDFVNWLLAQRPSSGAPPPSR (ends and bridges not checked) [Compound 187] | 1.2e-11 | – |
| Me-Y[Aib]EGTFISDYSIALDR[Aib]AQ[Aib]SFVNW[Iva]LAQRPSSGAPPPSR (not fully specified (residue 1, C-terminus); ends and bridges not checked) [Compound 126] | 2.1e-12 | > 1e-06 |
| Y[Aib]EGTFISDYSK([PEG(2)-C20 diacid])ALDRIAQQNFVNW[Iva]LAQRPSSGAPPPS (not fully specified (C-terminus); ends and bridges not checked) [Compound 406] | 3.2e-10 | > 1e-06 |
| [NMeY][Aib]EGTFISDYSIALDRIAQ[Aib]N[αMeF]VNW[Iva]LAQRPSSGAPPPSR (not fully specified (C-terminus); ends and bridges not checked) [Compound 76] | 1.5e-12 | > 1e-06 |
| [NMeY][Aib]EGTFISDYSIALDR[Aib]AQQD[αMeF]VNWLLAQRPSSGAPPPSR (not fully specified (C-terminus); ends and bridges not checked) [Compound 73] | 1.4e-12 | > 1e-06 |
| [NMeY][Aib]EGTFISDYSI[dIva]LDR[dIva]AQ[dIva]NFVNWLLAQRPSSGAPPPSR (not fully specified (N-terminus, C-terminus); ends and bridges not checked) [Compound 103] | 1.3e-12 | > 1e-06 |
| [NMeY][Aib]EGTFISDYSI[dIva]LDRIAQQDFVNWLLAQRPSSGAPPPS (ends and bridges not checked) [Compound 63] | 1.2e-12 | > 1e-06 |
| [NMeY][Aib]EGTFISDYSIALDRIAQQD[αMeF]VNWLLAQRPSSGAPPPS (ends and bridges not checked) [Compound 62] | 9.9e-13 | > 1e-06 |
| [NMeY][Aib]EGTFISDYSI[dIva]LDRIAQ[Aib]NFVNWLLAQRPSSGAPPPSR (ends and bridges not checked) [Compound 83] | 1.7e-12 | 1.7e-07 |
| Me-Y[Aib]EGTFISDYSIALDRIAQQSFVNWLLAQRPSSGAPPPS (not fully specified (residue 1, C-terminus); ends and bridges not checked) [Compound 129] | 1.7e-12 | > 1e-06 |
| Y[Aib]EGTFISDYSK([PEG(2)-C20 diacid])ALDRIAQQNFVNW[Iva]LAQRPSSGAPPPS (not fully specified (C-terminus); ends and bridges not checked) [Compound 402] | 7.8e-11 | > 1e-06 |
| [NMeY][Aib]EGTFISDYSIALDR[Aib]AQ[Aib]N[αMeF]VNWLLAQRPSSGAPPPSR (ends and bridges not checked) [Compound 98] | 1.4e-12 | > 1e-06 |
| [NMeY][Aib]EGTFISDYSIALDRIAQQSFVNW[Iva]LAQRPSSGAPPPSR (not fully specified (N-terminus, C-terminus); ends and bridges not checked) [Compound 67] | 1.4e-12 | > 1e-06 |
| [NMeY][Aib]EGTFISDYSIALDR[Aib]AQ[Aib]N[αMeF]VNW[Iva]LAQRPSSGAPPPSR (ends and bridges not checked) [Compound 114] | 1e-12 | – |
| [NMeY][Aib]EGTFISDYSI[dIva]LDR[Aib]AQ[Aib]NFVNW[Iva]LAQRPSSGAPPPSR (ends and bridges not checked) [Compound 85] | 1.1e-12 | > 1e-06 |
| [NMeY][Aib]EGTFISDYSIALDR[Aib]AQ[Aib]NFVNWLLAQRPSSGAPPPSR (ends and bridges not checked) [Compound 82] | 1.4e-12 | 1e-07 |
| Y[Aib]EGTVVSLYSK([Gly-Gly-Gly-Gly-C20 diacid])[Aib]LDRQAQ[Aib]EFVRWLLAQR (ends and bridges not checked) [Compound 256] | 3.1e-10 | > 1e-06 |
| Me-Y[Aib]EGTFISDYSI[dIva]LDRIAQQDFVNWLLAQRPSSGAPPPSR (not fully specified (residue 1, C-terminus); ends and bridges not checked) [Compound 131] | 1.9e-12 | > 1e-06 |
| Y[Aib]EGTVVSLYSK([Gly-Gly-Gly-Gly-Stearoyl])[Aib]LDRQAQ[Aib]EFVRWLLAQR (ends and bridges not checked) [Compound 257] | 9e-11 | > 1e-06 |
| [NMeY][Aib]EGTFISDYSIALDRIAQQS[αMeF]VNW[Iva]LAQRPSSGAPPPSR (not fully specified (C-terminus); ends and bridges not checked) [Compound 75] | 1.4e-12 | > 1e-06 |
| Y[Aib]EGTVVSLYSK([Gly-Gly-Gly-Gly-C20 diacid])[Aib]LDRQAQ[Aib]EFVK(Ac)WLLAQR (ends and bridges not checked) [Compound 259] | 1.2e-10 | > 1e-06 |
| [NMeY][Aib]EGTFISDYSI[dIva]LDR[Aib]AQQD[αMeF]VNWLLAQRPSSGAPPPSR (ends and bridges not checked) [Compound 81] | 1.5e-12 | > 1e-06 |
| [NMeY][Aib]EGTFISDYSIALDRIAQ[Aib]DFVNW[Iva]LAQRPSSGAPPPSR (ends and bridges not checked) [Compound 123] | 1.3e-12 | > 1e-06 |
| [NMeY][Aib]EGTFISDYSI[Iva]LDRIAQQD[αMeF]VNWLLAQRPSSGAPPPSR (not fully specified (C-terminus); ends and bridges not checked) [Compound 74] | 1.4e-12 | > 1e-06 |

Source: US20180298070A1, “PEPTIDE COMPOUND” (Takeda Pharmaceutical Company Limited, published 2018)
